Test results published in US20240026407A1, “MODIFICATION OF SAPONINS” (GLAXOSMITHKLINE BIOLOGICALS SA, priority 2020, published 2024).

B1: 102 (protein, listed as Bacteroides fragilis)
chain: MKATTSLATSCRRLLLWGVLTLQCLFSTAQKRFTADVEQQAEKILSQMTLDEKLSYIGGINWMYTRPLERFGIPRLKMSDGPQGLGTHGPSTAYPCALMLAATWNEQLATEYGSALGKDCRARGVHVLLGPAVNIYRAPMCGRNFEYMGEDPYLTSRMATGYIKGVQGQGVMATIKHFIANNSDYDRDHISSDIDERTLNEIYFPSFRAAVQEAEVGAVMSSYNLLNGIYTTEHPWLLKDVLRQQWGFKGILMSDWGSTHHCIPAVKGGLDLEMPAGSKMQPEELKYYLRTGDITIETIDEKVRHILQTLLAFGFRETQQPDTHIPLKNPQCAQTALNVASEGLVLLKNTNQILPIRSGKVKTIAVVGKNAQGYVCGGGSGEVHPFQYVSVLDGIRKEAAERDIRVEYLDVYDYLPTIIFTDTERKQKGFRAQYFDNMNLEGTPKVEQTETKINYSWSGGTGLKEMPKEQFSVRWNGTICPQETDEYLFTLGGDDGYRLYIDGKLIADEWHEGAFRNSTYRCMLEAGKKYDLKIEYFQKGGGAAVNFIWKQKNASNNLFVEALNRNDLVVACIGFNSDTEGEGRDRTFELPEDEAQLLQNTLQSKRPVVGIVNAGGNVEMQSWEPSLKGLLWAWYGGQEAGTAIARTLFGELNPSGKLPITFEKRWEDNPTFHSYYDPDGDKHVEYAEGIFVGYRGYDKLKREVQYPFGYGLSYTRFKLSAPTVGTPKTDGSVTVTCKLTNTGRTAGAEVVQLYVSNKDTTVEHPEKELKGFRKVYLEPGETKSIEITVPAEAFSHYDTGSRRFVIDRGSHDILLGFSSRDIKAKMSVGISR
B2: 178 (protein)
chain: MSELYCPIPPRDQDIYRFRQQFGANLGSTFVLGPHDNTGESNELQLLKTSLASTGLEQTRQKWQSHWHSALTDDDLVWLKDVAQCRTLRLPLSFYSLGPLFCRGTAFEGDPSEVYHHCWSTVKHLIEKCWFHGIGILIDFQASASGINLCASAKDRTIARDCVAFLAQEITFHSMSAVVGLSVSSGCEPAPDMCECYDEILKIANAIDACLPVYIDDNQAQCNKRVFKGCESDIPQFKSDISIGKIQIPSQMMLPETEVREKINKAKAERSGFQEKVLSQVSESWGSNERQSFVHGWNLGYDDALRFFGAAVQGILAPRKGADKIYDIELWVQQRKRDIDPEQLGENSAAWEDGLRRGIQDFYNIIGI
modifications: Aspergillus niger
B3: 152 (protein, listed as Kocuria rosea)
chain: MSDLWHGEEHAPGESDTAMTDATRTSGRAARLTELVDRLSLAEKVHLLTGETAFTLPGNERIGLAALAFSDGPTGVRGLTFVGGDAVALFPSATLIAGAFDDGIAEEVGRMLAEEAQRQHIHVVLGPTINLHRTPLGGRLFEAYSEDPYLTGRTAAAYVRGMQERGTAACLKHLVANESETLRNFMDSRVPETALRELYLLPFEMAVQDAGAWSMMAAYNDVNGVAATEHDHVQNGIVKGEWAWDGLIMSDWFATKRTAASASGGLDLVMPGPGGPWGERLVTAVRAGEVAEETIDDHVLRLLHLAERVGGLTPPGRQSRPWAQDLPAVDSPQRKEQLRRIAVRGMTVVANDGVLPLAVEGDAGQDVALIGRHAIDTVDMGGGSAVVNPPYLSTIAEGLAALLGDRVRVADGPAVRTRPVPADPAFLTDPATGTPGMQVVLLGADGTELTRYHSDSPAISLDGHDDLGEVPATAVLTTILANDAGPVRLGAVGAGRWDLVAEGQELSAELRLEGQDPGEAMLRPPAFAETVELPAAATLTATVAPAPVDWREVLLGDPGLGLAEESHLLQMTTAGKTALVAAPAPRPDDDLLAAAEAAAVAAGTAVVVVGLTEEQETEAADKTTLVLPGRQDELVRRVATAAERTVVVVNAATPVLMPWLDQVDAVLVAGLPGQEGGHAVAAALTGALEPTGRLVTSWPAADGAAPAWDVVPDGDRALSYDDGTFIGHRGYHAGHAPAPLFWFGHGLGYGTWEYGTVRARAGEGGPVVDVELTNTSSRASRETVQVYLDPAEDDQPIRLIGYQGVDVPSGATAAVRVRCDDRLLRRWDDAAGTWAPLAGGGELVLARGLGDVRARVPLA
B4: 274 (protein, listed as Modestobacter marinus)
chain: MAGDTTAPAELDRPWTNTSLSPQERARELVAAMTLEQKIAQLHGAMDTIDIYSMKADTAEGMEQLAAQIRVERHVAAIEELGIPRFRITNGPVGVGMGDGTPSPPATALPMTIGLAAGFDPALAREYGTVIGSETATLGQHVLEGPGVCLHRTPISGRNFEYFSEDPYLSGVMGVEVARAIQEHGVIAMAKHYVCNDQEYERFRADVEVDERTLRELYLLPFEMLVKDADLAAIMSAYNRVRGTYATEHRYLLHTVLREEWGWQGYVQSDFWSCRSAAPAVNAGLDHEMPDAKWLNEDNVKAALADTSLEIETVDRALVRRYTQMFRFGQFDRPYDPGEIDAEGHGAISRRIGEQIAVLLKNDGAVLPLEPGVQSVVVIGQATYVDEACLGGGGSSKVDPLYTVRPMDGLRDVLQTLGSSADLREVTVADDLSNLAEAQAAAATADVVVIMAGLVATEGADQPDAHMLNDQDRMIAEVGQVNVRTVVVLKDGNPVLMPWIDAVPAVLEAWNQGAEDGHVVADLLFGVVNPAGKLPTTYPRSWADTPFAGHPERYPGTDEGAGYPVLRYSEGRQMGYRWYQAQGITPLFPFGHGLSYTTFELSDLAVSPERTDGAAPLTVQLTVANTGDVAGAEVAQVYLELPEAAQQPPKRLVGFCKIWLEPGAAERISVTIDPAATNHPLSVWDDGAHDFVVLPGEYTVFVGSSSEDTPLSATVTID
B5: 84 (protein, listed as Tenericutes bacterium)
chain: MVNEELKTLLHTLSLTTKLKLLTGANFWESEKVLGTDLPIIVMNDGPFGVRKPTVNVDSGMLMEVIPATAFPTTSALASSFDPELLEKMGKTLATECIDQGVDLLLGPGINIKRSPLCGRNFEYFSEDPYLTSEMASGLVRGLQSKGVGATLKHYAVNNQEKERYTTNAIVDKRALNEIYLRPFHNVIKNTEPFSVMCSYNQINGRHASRHYKLLTEKLRNEANFKGLVVSDWGAVVDHVDSINAGLNLEMPGGYQNTAELEKAVKDGEIKLETIDEMITPLLKFMMYKRDNPKPKVKCDYKKNLEVAQEIAEKSAVLLRNEDNLLPINKTAKVGLIGNFAIKPRYQGSGSSQINPHTLVSVHDAFIQNDVNFVYADGYAEHEVKPNKKKIAEAVKVAKNSDVVVLCVGLPESYEVEGYDRKTLDMPPSHNELIKEVAKVNENIVIVLSTGSPVTMPWINDVKSILLTHLAGSMTGPATYNLLFGVTNPSGKLSETYPLSLDKGLPGGEFLTSDQNVLYRESLYVGYRYYDTFREQVLFPFGHGLSYTQFNTSHHEIEEVKDGYNITMEVTNIGHIRGAEVIGIYTGKSRSLLYGPRKELRAFKKVYLDPGEKQKINIFLPTESLKAYCPVKQEWVLENVNYNVYVGINVQTTDEIFQILVDDANDLSYLKNYQKENEMYYRRADFNPSIKDFTTLFGGESLPLFFANRKRPFTLANNISDTTDYWWGRTIYKIMAKTSRKLAGDDVVLQEMAVETIKELPFRSLSALSSGEVSTNQRDAILLLVNGKPIRGIFKFLRKKK

Experiment: Experiment 4-1: screening of glucosidases for deglycosylation with purified QS-18 (0.04 mg/ml) at pH 7.5 and room temperature
Format: biochemical, Quillaja saponaria
Settings: pH 7.5, room temperature, 20 h, clarified E. coli lysate, QS-18 2150 to QS-21 1988 by LCMS/MS
Protocol: Nucleotide sequences were sub-cloned into pET24b+ for expression. 10 uL of E. coli cells (One Shot® BL21(DE3) chemically competent E. coli) were transferred to each well of a 96 well PCR plate (prechilled on ice). 10 uL autoclaved water was added to the DNA, resuspended by pipetting, and 1 uL of plasmid DNA (15-30 ng) was transferred to the competent cells. Immediately after addition, the resulting mixture was mixed by pipetting. Cells were heat shocked by placing the plate in a thermal cycler at 42° C. for 30 seconds then transferred directly to an ice bath for 2 min. 100 uL sterile Lysogeny Broth (LB) medium was added to each well containing transformed cells. The content of each plate was transferred into a 96-deep well plate pre-aliquoted with 400 uL LB and the plate was incubated at 37° C. with shaking and 85% humidity for 1 hour. After outgrowth, 500 uL of sterile LB containing 100 ug/mL kanamycin was added to the plates containing cells and plates incubated at 37° C. with shaking overnight (18 hours) with humidity control (85%).
1000 mLs of Overnight Express Media was supplemented with 1 mL kanamycin 50 mg/mL and 20 mL of 50% v/v glycerol added (50 ug/mL kanamycin final and 1% glycerol). 96-Well Assay Block 2 mL plates were aliquoted with 380 uL of media per well. Pre-inoculum (20 uL) from transformation plates was added. The plates were sealed appropriately and incubated at 37° C. at 300 with shaking for 2 h. After 2 h the temperature was lowered to 20° C. and incubation continued for 20 h.
The liquid cultures were centrifuged for 10 minutes at 4° C. The supernatant was discarded, plates blotted on an absorbent material to remove residue and the plates frozen at −80° C.
Lysis buffer was prepared according to the following protocol: • 1. Polymyxin B sulphate (0.5 mg/mL) was suspended in 100 mM potassium phosphate pH 7.5 • 2. The mixture was sonicated until polymyxin B sulphate had dissolved • 3. Lysozyme (1 mg/mL) and benzonase (0.1 uL/mL lysis buffer) were added
2 copies of each cell pellet plate were removed from −80 degC freezer and allowed to thaw. 200 uL of lysis buffer was added to each well of one copy of the cell pellet plates. Plates were shaken at room temperature for 10 mins. 190 uL of cell pellet/lysis buffer was transferred to a corresponding fresh cell pellet plate. These plates were incubated at room temperature with shaking for 2 hours. Lysate was clarified by centrifugation (10 min, 4 degC).
QS-18 was obtained by analogous methods to Example 3, collecting a QS-18 containing phenyl fraction following phenyl treatment (presence of m/z corresponding to key components was confirmed by MS and the phenyl fraction then used without further treatment). QS-18 solution was prepared by diluting aqueous QS-18 (ca 1 mg/mL) with 100 mM potassium phosphate pH 7.5 to 0.2 mg/ml. 40 uL clarified lysate was transferred into fresh 96 well PCR plates. 10 uL QS-18 solution added to each well of lysate to a final concentration of 0.04 mg/ml. Incubated at room temperature with shaking for 20 h. Quenched with 50 uL MeCN and shaken at room temperature for 10 mins. Samples were analysed by LC-MS/MS using a Waters Acquity H class coupled to a Waters Xevo Tandem Quadrupole (TQD) Mass Spectrometer.
Enzyme activity was calculated as: […]
Candidate enzymes with % conversion >0.72%, i.e. >3 S.D. above negative control, were considered to be positive hits and are listed below in Table 7. Sample results are shown in FIG. 10 for a QS-21 standard, FIG. 11 for negative control and FIG. 12 for treatment with the glucosidase of SEQ ID No. 262.

| Molecule | Expt 4-1 % conv [%] |
| --- | --- |
| B1 | 0.7 |
| B2 | 0.5 |
| B3 | 1.1 |
| B4 | 0.9 |
| B5 | 0.8 |

Experiment: Experiment 4-2: screening of glucosidases for deglycosylation with purified QS-18 (1 mg/ml) at pH 6 and 30 deg C
Format: biochemical, Quillaja saponaria
Settings: pH 6, 30 degC, 18 hrs, clarified lysate, LCMS/MS
Protocol: Lysates were prepared in an identical manner to Experiment 4-1 above, except the lysis buffer was prepared in 100 mM potassium phosphate buffer pH 6. QS-18 solution was prepared by dissolving QS-18 in 100 mM potassium phosphate buffer pH 6 (2 mg/mL).
12 uL clarified lysate was transferred into fresh 96 well PCR plates. 12 uL QS-18 solution was added (1 mg/ml final concentration), plates sealed and incubated overnight (30° C.) for 18 hrs. After quenching with 25 uL MeCN and shaking for 10 mins (RT), samples were analysed using the LC-MS/MS protocol described in Experiment 4-1 and enzyme activity determined in an analogous manner.

| Molecule | Expt 4-2 % conv [%] |
| --- | --- |
| B1 | 0.4 |
| B2 | 0.8 |
| B3 | 0.5 |
| B4 | 0.3 |
| B5 | 0.4 |
